Reference: US5851983A, “Elastase inhibitory polypeptide and process for production thereof by recombinant gene technology” (Teijin Limited, priority 1987, dated 1998)

How the values were obtained:
[1] = target: T1, polymorphonuclear leucocyte elastase from human sputum (Homo sapiens, UniProt P08246); experiment: Treatment with polymorphonuclear leucocyte elastase from human sputum (Examples 27, 30); assay type: in vitro ADME; settings: 37° C.
T1 construct: Polymorphonuclear leukocyte elastase from human sputum (EPC Co; Funakoshi Yakuhin); purchased EPC Co. (via Funakoshi Yakuhin); host or cells: human sputum
T1 sequence (P08246 30-267): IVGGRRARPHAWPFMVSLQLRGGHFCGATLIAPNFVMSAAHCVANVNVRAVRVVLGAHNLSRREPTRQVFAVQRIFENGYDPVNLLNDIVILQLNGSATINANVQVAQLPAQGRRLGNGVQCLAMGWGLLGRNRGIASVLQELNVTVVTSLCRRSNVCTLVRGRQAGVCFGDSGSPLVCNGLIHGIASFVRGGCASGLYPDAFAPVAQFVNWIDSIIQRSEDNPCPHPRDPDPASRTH
Method: Polymorphonuclear leucocyte elastase from human sputum (EPC, Funakoshi Yakuhin) and SLPI were separately dissolved in a buffer (0.1M HEPES, 0.1M NaCl, 0.1% PEG 6000, pH 7.5) and the elastase solution was added to the SLPI solution, and the mixture was incubated at 37° C. Samples were taken as time elapsed, and to each sample were added Tris-HCl buffer (pH 6.8), SDS, 2-mercaptolethanol, glycerol, and Coomassie Brilliant Blue to final concentrations of 50 mM, 4 w/v %, 2 v/v %, 12 v/v % and 0.01 w/v % respectively. The mixture was subjected to SDS-polyacrylamide gel electrophoresis using Tricine (Sigma) as a polar buffer (Schagger, H., Anal. Biochem. 166, 368, 1987). After the electrophoresis, the gel was stained with Coomassie Brilliant Blue G-250, and decoloured with 50% (v/v) methanol/10% (v/v) acetic acid.
(1) A result of a test, wherein elastase was added to 100 μM SLPI to an elastase final concentration of 200 μM, and the mixture was incubated at 37° C. up to 192 hours taking samples as time elapsed, is shown in FIG. 20. […]
(3) Next, polypeptides thus generated were electrically transferred to a membrane (Immobilon-p^SQ Millipore) using a Milli Blot-SDE apparatus (Millipore). […] After drying, relevant bands were cut out, and the peptide was cleaved from the N-terminal using an Applied Biosystems Protein-Sequencer (Applied Biosystems; 477A), and after PTH-conversion, the resulting amino acid derivatives were analyzed by a PTH-Amino acid analyzer (Applied Biosystems, 120A) to determine the N-terminal amino acid sequence.
According to the same procedure as described in Example 27, (Asn^55 -Ala^107) SLPI (final concentration 100 μM) was treated with elastase (final concentration 200 μM) at 37° C. for 48 hours. The sample was separated by SDS-PAGE, and electrically transferred to a filter as described in Example 27, a band corresponding to a molecular weight of about 5,500 was cut out, and an N-terminal amino acid sequence was analyzed.

Human plasma kallikrein = target: T2, Human plasma kallikrein (Homo sapiens, UniProt P03952); experiment: Assay for kallikrein inhibitory activity (Example 25); assay type: biochemical; settings: final concentration up to ×10^-5 M; enzyme 1.0 × 10^-7 M
T2 construct: (7) Human plasma kallikrein (Kabi, Daiichi Kagaku Yakuhin); purchased Kabi (via Daiichi Kagaku Yakuhin); host or cells: human plasma
Method: H. Human plasma kallikrein (Protogene, Funakoshi Yakuhin)
Kallikrein: 50 mM Tris-HCl, 361 mM NaCl, 0.01 mg/ml polybrene (pH 7.8) […]
Substrate solution: for the enzymes F, G, H and I, the following substrate f, g, h or i, respectively, was dissolved to a final concentration shown in Table 14.
h. H.D-Pro-Phe-Arg-pNA (Kabi Vitram)
To wells of an ELISA 96-well microtiter plate, were added a solution of (Arg^59 -Ala^107) SLPI obtained in Example 23 and then the enzyme solution, and the mixture was incubated at 37° C. for 10 minutes. Next, the substrate solution was added to develop the color, whose absorption was then measured at 405 nm. As a control, SLPI was used.

Porcine FXa = experiment: Assay for Fxa inhibitory activity (Example 36); assay type: biochemical; settings: final concentration up to ×10^-5 M; enzyme 1.0 × 10^-8 M
Method: I. Porcine FXa (Daichi Seiyaku)
Thrombin and FXa: 50 mM Tris-HCl, 7.5 mM EDTA-2Na, 175 mM NaCl (pH 8.4) […]
Substrate solution: for the enzymes F, G, H and I, the following substrate f, g, h or i, respectively, was dissolved to a final concentration shown in Table 24.
i. Ratio 1:1 mixture of the following compounds: [drawing 6]
To wells of an ELISA 96-well microtiter plate, were added a solution of (Arg^58 -Ala^107) SLPI obtained in Example 34 and then the enzyme solution, and the mixture was incubated at 37° C. for 10 minutes. Next, the substrate solution was added to develop the color, whose absorption was then measured at 405 nm. As a control, SLPI was used.

elastase and trypsin = settings: R. C. Thompson et al., Proc. Natl. Acad. Sci. USA, 83, 6692; cited from earlier work

T2 sequence (P03952 391-638 limits assumed): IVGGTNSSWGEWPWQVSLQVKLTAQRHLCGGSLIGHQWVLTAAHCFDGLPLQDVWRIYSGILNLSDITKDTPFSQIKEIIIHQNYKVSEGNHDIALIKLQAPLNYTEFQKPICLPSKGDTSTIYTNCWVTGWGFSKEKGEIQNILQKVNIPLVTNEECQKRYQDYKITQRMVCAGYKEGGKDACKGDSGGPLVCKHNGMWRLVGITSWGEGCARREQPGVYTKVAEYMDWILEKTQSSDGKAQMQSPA
T2 sequence (P03952 20-390 partner limits assumed): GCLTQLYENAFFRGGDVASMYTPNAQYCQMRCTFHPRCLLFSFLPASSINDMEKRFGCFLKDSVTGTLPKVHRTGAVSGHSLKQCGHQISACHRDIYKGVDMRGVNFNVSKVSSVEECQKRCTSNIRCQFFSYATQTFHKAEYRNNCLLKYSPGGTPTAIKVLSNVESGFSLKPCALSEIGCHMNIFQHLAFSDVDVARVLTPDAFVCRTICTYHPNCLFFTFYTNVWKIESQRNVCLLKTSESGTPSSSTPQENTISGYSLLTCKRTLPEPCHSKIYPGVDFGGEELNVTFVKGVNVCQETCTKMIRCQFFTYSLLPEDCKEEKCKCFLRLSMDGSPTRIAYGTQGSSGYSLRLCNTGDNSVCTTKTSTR

B1: SLPI: Human secretory leukoprotease inhibitor; recombinant SLPI of Reference Example 1 used as control (protein)
chain: SGKSFKAGVCPPKKSAQCLRYKKPECQSDWQCPGKKRCCPDTCGIKCLDPVDTPNPTRRKPGKCPVTYGQCLMLNPPNFCEMDGQCKRDLKCCMGMCGKSCVSPVKA
- SDS-PAGE band of SLPI on treatment with elastase ([1]; 50 μM SLPI, not less than 100 μM elastase, one hour): disappeared significantly
- SDS-PAGE band of SLPI on treatment with elastase ([1]; 100 μM SLPI, 200 μM elastase): rapidly disappeared after 45 minute incubation
- selective cleavage sites with elastase from human sputum ([1]; N-terminal sequencing of SDS-PAGE bands): between Ser^15 -Ala^16, and Thr^57 -Arg^58
- inhibitory activity to kallikrein (Human plasma kallikrein): did not exhibit inhibitory activity
- inhibitory activity to FXa (Porcine FXa): did not exhibit inhibitory activity
- Ki(E) compared with Ki(T) (elastase and trypsin): Ki(E) is roughly equivalent to Ki(T)
